# Data from article PMC6432756.
# Legend:
# [1] = molecular target: D-allulose 3-epimerase from Staphylococcus aureus (Staphylococcus aureus); assay: SEC; purified SaDAE on Superdex 200 Increase 10/300 GL, 20 mM Tris-HCl pH 8.0, 100 mM NaCl, 1 mM DTT; markers conalbumin (75.0 kDa) and aldolase (158.0 kDa)
# [2] = molecular target: D-allulose 3-epimerase from Staphylococcus aureus (Staphylococcus aureus); assay: MALDI-TOF mass spectrometry; purified enzyme on HCCA matrix, acetonitrile-water 70:30 with 0.01% trifluoroacetic acid, linear mode
substance,measurement,setting,value
D-allulose 3-epimerase from Staphylococcus aureus (enzyme),stoichiometry N,[1],4
same,stoichiometry N,[2],4
